Source: paper PMC3355305, “Localized Dimerization and Nucleoid Binding Drive Gradient Formation by the Bacterial Cell Division Inhibitor MipZ” (Molecular Cell, 2012)
Like-named read-outs stand apart in the source and are kept apart here.

Biological target: MipZ dimer
Assay: Effect of ParB and parS-containing plasmid DNA on the ATPase activity of MipZ
Format: biochemical, Caulobacter crescentus
Details: for Kd: read-out: K
Source text: Figure 3 Interaction of MipZ with FtsZ and ParB (A) Effect of different mutations on the activity of MipZ. Strains MT177 (WT), DK2 (K13A), MT178 (G14V), MT179 (K18Q), and MT197 (D42A) were cultivated for 8 hr in conditions that prevent expression of wild-type mipZ while inducing expression of the indicated mipZ-yfp allele (the scale bar represents 2 μm). (B) Effect of MipZ and its mutant derivatives on the GTPase activity of FtsZ. Shown are the turnover numbers (kcat) of FtsZ in the absence of additional proteins (–) or in the presence of different MipZ variants or BSA. Data represent the average of at least three independent experiments (±SD). (C and D) SPR analysis of the interaction between MipZ and ParB. ParB (3800 RU) was immobilized on a sensor chip and probed with the indicated MipZ proteins (6 μM) in the presence of ADP (C) or ATP (D). (E) Colocalization of mutant MipZ variants with ParB. Strains DK3 (K13A), DK5 (G14V), DK6 (K18Q), and DK7 (D42A) were induced for 8 hr to synthesize CFP-ParB and the indicated MipZ-YFP variants in place of wild-type MipZ (the scale bar represents 2 μm). […] (F) Two-hybrid analysis of the interaction between MipZ and ParB. E. coli BTH101 was transformed with pairs of plasmids encoding the indicated derivatives of the T18 and T25 fragments of adenylate cyclase, respectively. Interaction is evidenced by the formation of red colonies. Positive control (+): T25-zip:T18-zip. (G) Effect of ParB on the ATPase activity of MipZ. The average turnover number (kapp) of MipZ was determined over a range of different MipZ concentrations. When appropriate, the reactions were supplemented with ParB and/or parS-containing plasmid DNA (pMT428; 3.6 kb). The data were approximated by the model used in Figure 2F, yielding the following K and kcat values: MipZ alone (7.1 μM and 0.61 min^−1), + ParB (2.6 μM and 0.77 min^−1), + DNA (6.0 μM and 1.5 min^−1), + ParB and DNA (1.6 μM and 1.6 min^−1). See also Figure S4.
Previous work has shown that, in the presence of parS-containing DNA, ParB stimulates the ATPase activity of ParA/Soj up to 60-fold ([Leonard et al., 2005; Scholefield et al., 2011]), probably by accelerating the rate of nucleotide hydrolysis. […] To clarify this issue, we reanalyzed the concentration dependence of MipZ's ATPase activity (compare Figure 2F) in the presence of both ParB and/or a plasmid that carried a chromosomal fragment containing all predicted C. crescentus parS sites (Figure 3G). […] Consequently, the MipZ dimer might be able to interact with DNA independently of ParB (as detailed below), leading to conformational adjustments that enhance its hydrolytic potential. […] Collectively, these findings argue against a role of ParB as an ATPase-activating factor. […]
obtained from crystals flash frozen in a solution of 95% 2 mM, sa mp le s were taken and analyzed for the amount ethanol/50 mM Tris (pH 8.5), and collected at ID23-2, of [α-32P]-GDP produced in the reaction as described ESRF (Grenoble, France). For apo-MipZ in crystal above. form 2, 768 standard conditions were screened in 200 nl To analyze the concentration dependence of MipZ’s sitting drops using a Microsys 4004 Cartesian robotics ATPase activity, varying amounts of MipZ were system and MipZ at a concentration of 10 mg/ml. incubated in buffer P containing 2 mM [α-32P]-ATP and Crystals obtained in a buffer containing 100 mM Hepes 0.3 mg/ml bovine serum albumin and assayed for (pH 7.5), 10% PEG 10000, 4% ethylene glycol and 30% hydrolytic activity as described above. glycerol were flash-frozen, and data were collected at To determine the effect of ParB on MipZ’s ATPase ID23-1, ESRF. activity, varying amounts of MipZ were incubated with All crystals were indexed and integrated using the ParB (4.5 µM) and/or plasmid pMT428 (3.6 kb, 0.2 MOSFLM package and further processed using the µM), which bears a chromosomal fragment containing […]

B1: MipZ: P loop ATPase and cell division inhibitor of Caulobacter crescentus; hexahistidine-tagged in vitro, YFP fusion in FRAP (protein)
chain: MAETRVIVVGNEKGGAGKSTIAVHLVTALLYGGAKVAVIDLDLRQRTSARFFENRRAWLDNKKIELPEPLALNLSDNDVALAERPEEEQVAGFEAAFARAMAECDFILIDTPGGDSAITRMAHGRADLVVTPMNDSFVDFDMLGTVDPVTLELTKPSLYSLTVWEGRKQRALSGQRQAMDWVVLRNRLATTEARNRKRLEDRLNALAKRVGFRIGPGLRDRVIYRELFPFGLTIADLSPQVRPVPVSLQHLAARQELRALMHSLGLSAYSGETMLAAQ
modifications: left off: His6, end not stated, state not stated
notes: hexahistidine-tagged in vitro, YFP fusion in FRAP
+ DNA (pMT428, 0.2 µM)
  Kd: 6 µM
+ ParB (4.5 µM)
  Kd: 2.6 µM
+ ParB and DNA
  Kd: 1.6 µM
MipZ alone
  kcat: 0.0102 s⁻¹
  Kd: 7.1 µM
Upon addition of DNA
  increase in the catalytic activity of the dimeric complex (kcat): ~2 fold
Upon addition of ParB
  decrease in the apparent equilibrium dissociation constant of the dimeric complex: ~4 fold
